The chains are these.
T1: EsCas13d, nuclease-dead (Eubacterium siraeum, UniProt B0MS50, R295A;H300A;R849A;H854A)
T1 sequence: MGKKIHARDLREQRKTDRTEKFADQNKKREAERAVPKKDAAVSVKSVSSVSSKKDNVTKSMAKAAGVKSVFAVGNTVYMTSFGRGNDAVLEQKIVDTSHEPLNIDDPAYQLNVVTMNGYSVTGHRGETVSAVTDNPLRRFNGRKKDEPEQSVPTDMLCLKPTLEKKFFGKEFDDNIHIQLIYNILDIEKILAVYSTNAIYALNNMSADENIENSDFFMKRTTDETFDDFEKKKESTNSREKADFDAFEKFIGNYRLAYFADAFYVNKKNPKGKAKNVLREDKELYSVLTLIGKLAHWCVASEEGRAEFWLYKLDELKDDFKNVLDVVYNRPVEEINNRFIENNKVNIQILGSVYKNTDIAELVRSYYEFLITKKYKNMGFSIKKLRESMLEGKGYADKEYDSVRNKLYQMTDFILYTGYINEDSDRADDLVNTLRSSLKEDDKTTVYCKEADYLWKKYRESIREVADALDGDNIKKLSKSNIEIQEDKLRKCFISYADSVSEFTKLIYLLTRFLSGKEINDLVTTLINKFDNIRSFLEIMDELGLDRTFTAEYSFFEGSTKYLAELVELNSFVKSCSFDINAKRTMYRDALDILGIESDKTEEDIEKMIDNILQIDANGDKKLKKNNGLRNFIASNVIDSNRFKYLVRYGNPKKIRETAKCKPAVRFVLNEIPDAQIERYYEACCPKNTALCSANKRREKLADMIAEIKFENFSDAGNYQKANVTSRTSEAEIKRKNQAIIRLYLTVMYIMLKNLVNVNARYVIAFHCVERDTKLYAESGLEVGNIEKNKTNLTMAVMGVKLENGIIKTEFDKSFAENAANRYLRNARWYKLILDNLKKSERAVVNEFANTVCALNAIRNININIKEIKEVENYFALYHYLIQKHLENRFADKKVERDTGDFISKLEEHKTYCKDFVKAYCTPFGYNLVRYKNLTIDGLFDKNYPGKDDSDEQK

B1: target 1 insA 3' of 22,insC 3' of 12 (mixed)
RNA 1: CACCCGUGCAAAAAUGCAGGGGUCUAAAACUGAGCGGAUAACCUCUCUAUGG
RNA 2: GGGAAUGGAUCCACAUCUACGAAUUCGUACACAUAGAGAGGCUUAUCCGCUCACCGAGAUCGGAAGAGCACACGU
B2: target 1 insG 3' of 16,insC 3' of 16 (mixed)
RNA 1: CACCCGUGCAAAAAUGCAGGGGUCUAAAACUGAGCGGAUAACCUCUCUAUGG
RNA 2: GGGAAUGGAUCCACAUCUACGAAUUCGUACCAUAGAGCGAGGUUAUCCGCUCACCGAGAUCGGAAGAGCACACGU
B3: target 1 U3A,C6A (mixed)
RNA 1: CACCCGUGCAAAAAUGCAGGGGUCUAAAACUGAGCGGAUAACCUCUCUAUGG
RNA 2: GGGAAUGGAUCCACAUCUACGAAUUCGUACCAUAGAGAGGUUAUCAGCACACCGAGAUCGGAAGAGCACACGU
B4: target 1 C7U,U8A (mixed)
RNA 1: CACCCGUGCAAAAAUGCAGGGGUCUAAAACUGAGCGGAUAACCUCUCUAUGG
RNA 2: GGGAAUGGAUCCACAUCUACGAAUUCGUACCAUAGAGAGGUUAAUCGCUCACCGAGAUCGGAAGAGCACACGU
B5: target 1 insU 3' of 18,insU 3' of 18 (mixed)
RNA 1: CACCCGUGCAAAAAUGCAGGGGUCUAAAACUGAGCGGAUAACCUCUCUAUGG
RNA 2: GGGAAUGGAUCCACAUCUACGAAUUCGUACCAUAUUGAGAGGUUAUCCGCUCACCGAGAUCGGAAGAGCACACGU
B6: target 1 insC 3' of 20,insU 3' of 7 (mixed)
RNA 1: CACCCGUGCAAAAAUGCAGGGGUCUAAAACUGAGCGGAUAACCUCUCUAUGG
RNA 2: GGGAAUGGAUCCACAUCUACGAAUUCGUACCACUAGAGAGGUUAUCUCGCUCACCGAGAUCGGAAGAGCACACGU
B7: target 1 U3G,G15U (mixed)
RNA 1: CACCCGUGCAAAAAUGCAGGGGUCUAAAACUGAGCGGAUAACCUCUCUAUGG
RNA 2: GGGAAUGGAUCCACAUCUACGAAUUCGUACCAUAGAUAGGUUAUCCGCGCACCGAGAUCGGAAGAGCACACGU
B8: target 1 insC 3' of 22,insA 3' of 10 (mixed)
RNA 1: CACCCGUGCAAAAAUGCAGGGGUCUAAAACUGAGCGGAUAACCUCUCUAUGG
RNA 2: GGGAAUGGAUCCACAUCUACGAAUUCGUACCCAUAGAGAGGUUAAUCCGCUCACCGAGAUCGGAAGAGCACACGU
B9: target 1 C4A,U11G (mixed)
RNA 1: CACCCGUGCAAAAAUGCAGGGGUCUAAAACUGAGCGGAUAACCUCUCUAUGG
RNA 2: GGGAAUGGAUCCACAUCUACGAAUUCGUACCAUAGAGAGGGUAUCCGAUCACCGAGAUCGGAAGAGCACACGU
B10: target 1 G12U,A18C (mixed)
RNA 1: CACCCGUGCAAAAAUGCAGGGGUCUAAAACUGAGCGGAUAACCUCUCUAUGG
RNA 2: GGGAAUGGAUCCACAUCUACGAAUUCGUACCAUCGAGAGUUUAUCCGCUCACCGAGAUCGGAAGAGCACACGU
B11: target 1 G13C,G15A (mixed)
RNA 1: CACCCGUGCAAAAAUGCAGGGGUCUAAAACUGAGCGGAUAACCUCUCUAUGG
RNA 2: GGGAAUGGAUCCACAUCUACGAAUUCGUACCAUAGAAACGUUAUCCGCUCACCGAGAUCGGAAGAGCACACGU
B12: target 1 U10A,G13A (mixed)
RNA 1: CACCCGUGCAAAAAUGCAGGGGUCUAAAACUGAGCGGAUAACCUCUCUAUGG
RNA 2: GGGAAUGGAUCCACAUCUACGAAUUCGUACCAUAGAGAAGUAAUCCGCUCACCGAGAUCGGAAGAGCACACGU
B13: target 1 C4U,C6U (mixed)
RNA 1: CACCCGUGCAAAAAUGCAGGGGUCUAAAACUGAGCGGAUAACCUCUCUAUGG
RNA 2: GGGAAUGGAUCCACAUCUACGAAUUCGUACCAUAGAGAGGUUAUCUGUUCACCGAGAUCGGAAGAGCACACGU
B14: target 1 G12A,C21A (mixed)
RNA 1: CACCCGUGCAAAAAUGCAGGGGUCUAAAACUGAGCGGAUAACCUCUCUAUGG
RNA 2: GGGAAUGGAUCCACAUCUACGAAUUCGUACAAUAGAGAGAUUAUCCGCUCACCGAGAUCGGAAGAGCACACGU
B15: target 1 insG 3' of 10,insA 3' of 10 (mixed)
RNA 1: CACCCGUGCAAAAAUGCAGGGGUCUAAAACUGAGCGGAUAACCUCUCUAUGG
RNA 2: GGGAAUGGAUCCACAUCUACGAAUUCGUACCAUAGAGAGGUUGAAUCCGCUCACCGAGAUCGGAAGAGCACACGU
B16: target 1 insA 3' of 19,insG 3' of 3 (mixed)
RNA 1: CACCCGUGCAAAAAUGCAGGGGUCUAAAACUGAGCGGAUAACCUCUCUAUGG
RNA 2: GGGAAUGGAUCCACAUCUACGAAUUCGUACCAUAAGAGAGGUUAUCCGCUGCACCGAGAUCGGAAGAGCACACGU
B17: target 1 C2G,U3G (mixed)
RNA 1: CACCCGUGCAAAAAUGCAGGGGUCUAAAACUGAGCGGAUAACCUCUCUAUGG
RNA 2: GGGAAUGGAUCCACAUCUACGAAUUCGUACCAUAGAGAGGUUAUCCGCGGACCGAGAUCGGAAGAGCACACGU
B18: target 1 insA 3' of 5,insG 3' of 2 (mixed)
RNA 1: CACCCGUGCAAAAAUGCAGGGGUCUAAAACUGAGCGGAUAACCUCUCUAUGG
RNA 2: GGGAAUGGAUCCACAUCUACGAAUUCGUACCAUAGAGAGGUUAUCCGACUCGACCGAGAUCGGAAGAGCACACGU
B19: target 1 insA 3' of 15,insU 3' of 5 (mixed)
RNA 1: CACCCGUGCAAAAAUGCAGGGGUCUAAAACUGAGCGGAUAACCUCUCUAUGG
RNA 2: GGGAAUGGAUCCACAUCUACGAAUUCGUACCAUAGAGAAGGUUAUCCGUCUCACCGAGAUCGGAAGAGCACACGU
B20: target 1 G12C,G13C (mixed)
RNA 1: CACCCGUGCAAAAAUGCAGGGGUCUAAAACUGAGCGGAUAACCUCUCUAUGG
RNA 2: GGGAAUGGAUCCACAUCUACGAAUUCGUACCAUAGAGACCUUAUCCGCUCACCGAGAUCGGAAGAGCACACGU
B21: target 1 insU 3' of 22,insG 3' of 6 (mixed)
RNA 1: CACCCGUGCAAAAAUGCAGGGGUCUAAAACUGAGCGGAUAACCUCUCUAUGG
RNA 2: GGGAAUGGAUCCACAUCUACGAAUUCGUACUCAUAGAGAGGUUAUCCGGCUCACCGAGAUCGGAAGAGCACACGU
B22: target 1 insC 3' of 19,insA 3' of 3 (mixed)
RNA 1: CACCCGUGCAAAAAUGCAGGGGUCUAAAACUGAGCGGAUAACCUCUCUAUGG
RNA 2: GGGAAUGGAUCCACAUCUACGAAUUCGUACCAUCAGAGAGGUUAUCCGCUACACCGAGAUCGGAAGAGCACACGU
B23: target 1 insA 3' of 21,insA 3' of 4 (mixed)
RNA 1: CACCCGUGCAAAAAUGCAGGGGUCUAAAACUGAGCGGAUAACCUCUCUAUGG
RNA 2: GGGAAUGGAUCCACAUCUACGAAUUCGUACCAAUAGAGAGGUUAUCCGCAUCACCGAGAUCGGAAGAGCACACGU
B24: target 1 insC 3' of 18,insC 3' of 15 (mixed)
RNA 1: CACCCGUGCAAAAAUGCAGGGGUCUAAAACUGAGCGGAUAACCUCUCUAUGG
RNA 2: GGGAAUGGAUCCACAUCUACGAAUUCGUACCAUACGAGCAGGUUAUCCGCUCACCGAGAUCGGAAGAGCACACGU
B25: target 1 G12C,C21U (mixed)
RNA 1: CACCCGUGCAAAAAUGCAGGGGUCUAAAACUGAGCGGAUAACCUCUCUAUGG
RNA 2: GGGAAUGGAUCCACAUCUACGAAUUCGUACUAUAGAGAGCUUAUCCGCUCACCGAGAUCGGAAGAGCACACGU
B26: target 1 insA 3' of 22,insA 3' of 13 (mixed)
RNA 1: CACCCGUGCAAAAAUGCAGGGGUCUAAAACUGAGCGGAUAACCUCUCUAUGG
RNA 2: GGGAAUGGAUCCACAUCUACGAAUUCGUACACAUAGAGAGAGUUAUCCGCUCACCGAGAUCGGAAGAGCACACGU
B27: target 1 insU 3' of 5 (mixed)
RNA 1: CACCCGUGCAAAAAUGCAGGGGUCUAAAACUGAGCGGAUAACCUCUCUAUGG
RNA 2: GGGAAUGGAUCCACAUCUACGAAUUCGUACCAUAGAGAGGUUAUCCGUCUCACCGAGAUCGGAAGAGCACACGU

The target in this data set is T1, EsCas13d, nuclease-dead. The data set can be described thus: crRNA (strand 1, pre-loaded); Mg2+; 40 mM Tris-HCl pH 7.5, 150 mM NaCl, 6 mM MgCl2, 1 mM DTT, 0.1% Tween-20, 0.2 mg/ml BSA; 25 C; 10 min per concentration, then washed. The following applies: tags: His6-TwinStrep-SUMO cleaved; N-terminal SNAP kept (SNAP-Surface 488); label: 3' end held by stalled T7 RNA polymerase.
In turn, B1 showed a Kd of 20.1 ± 1.2 nM.
Regarding B2, binding was put at a Kd of 31.5 ± 1.8 nM.
Regarding B3, binding was put at a Kd of 5.02 ± 0.21 nM.
In the case of B4 it was 12.9 ± 0.7 nM.
In the case of B5 it was 30.9 ± 2 nM; in that of B6, 13.2 ± 1 nM; in that of B7, roughly 60 nM.
The molecule B8 returned a Kd of 28.2 ± 3.4 nM.
In the case of B9 it was 8.4 ± 0.7 nM; in that of B10, 40 ± 4 nM.
As for B11, binding was put at a Kd of 46 ± 9 nM.
B12 came in with a Kd of 9.5 ± 1 nM.
Then B13, with 28 ± 8 nM; and B14, with 34.8 ± 2.2 nM.
For B15, binding was characterised by a dissociation constant (Kd) of 10.7 ± 0.6 nM.
Then B16, with 13.2 ± 0.6 nM.
B17 displayed an equilibrium dissociation constant (Kd) of 4.43 ± 0.34 nM.
In the case of B18 it was 8.3 ± 0.7 nM.
Then B19, with 27.9 ± 2.9 nM; and B20, with 30 ± 6 nM; and B21, with 34 ± 7 nM.
The molecule B22 registered a dissociation constant (Kd) of 29.8 ± 2.1 nM.
In the case of B23 it was 10.2 ± 1.3 nM; in that of B24, 56 ± 8 nM; in that of B25, 6 ± 0.5 nM.
Then B26, with 6 ± 0.4 nM.
Molecule B27 registered a dissociation constant (Kd) of 18.1 ± 2.5 nM.

For orientation: Kd means the free concentration of one partner at which half of the binding sites on the other are occupied at equilibrium, for simple one-to-one binding. High values mean a looser complex, low ones a tighter complex.

The values are drawn from article PMC10786891, “Massively parallel profiling of RNA-targeting CRISPR-Cas13d”.
